The values that follow come from PMC8096101.

The assay addresses SMO657-nanoluc (UniProt P56726). Briefly: BRET. Conditions: HEK293 cells; SMO657-nanoluc donor, YFP-tagged PKA-C acceptor; BRET ratio (YFP/nanoluc), background-subtracted; parent: est. 2.4; read off a plot. A general note: Bioluminescence resonance energy transfer reports proximity on the nanometre scale.
UniProt P56726, sequence (P56726 65-657): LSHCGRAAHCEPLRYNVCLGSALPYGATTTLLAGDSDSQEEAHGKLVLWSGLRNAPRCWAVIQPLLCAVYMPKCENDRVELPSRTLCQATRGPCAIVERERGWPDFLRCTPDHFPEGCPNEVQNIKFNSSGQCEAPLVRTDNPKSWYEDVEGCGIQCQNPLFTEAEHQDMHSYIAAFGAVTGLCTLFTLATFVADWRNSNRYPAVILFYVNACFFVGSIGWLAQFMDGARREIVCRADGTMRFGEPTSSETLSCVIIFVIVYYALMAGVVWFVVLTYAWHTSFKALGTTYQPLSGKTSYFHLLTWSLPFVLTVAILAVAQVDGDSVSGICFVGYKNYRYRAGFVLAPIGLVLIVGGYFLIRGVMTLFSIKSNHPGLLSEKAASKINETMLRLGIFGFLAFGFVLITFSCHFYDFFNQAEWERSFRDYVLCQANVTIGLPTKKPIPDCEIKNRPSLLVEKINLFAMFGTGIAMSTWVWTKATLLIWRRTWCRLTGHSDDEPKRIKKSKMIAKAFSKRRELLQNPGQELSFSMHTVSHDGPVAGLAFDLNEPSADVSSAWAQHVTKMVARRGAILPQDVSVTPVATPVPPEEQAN

For “PKA-C-YFP (PKA catalytic subunit alpha, carboxyl-terminally YFP-tagged) (from UniProt P05132) H87Q; W196R”, the response amounted to 2.5 BRET.
